The record followed here is article PMC7176292.

Assay [1] deals with human μ-opioid receptor (μOR) M153L, with HA signal sequence at the N terminus and LgBiT at the C terminus (modified pfastbac1) (human) (UniProt P35372). Briefly: split reporter (BiFC, NanoBiT); NanoBiT on Sf9 membranes co-expressing μOR-LgBiT, Gαi1, Gβ1-SmBiT and Gγ2, in PBS pH 7.4; dose-response of fentanyl, 15 min at room temperature, luminescence; normalized to DAMGO.
Assay [2] concerns the target human μ-opioid receptor (μOR) M153V, with HA signal sequence at the N terminus and LgBiT at the C terminus (modified pfastbac1) (human) (UniProt P35372). The description is as above.
Assay [3] concerns the target human μ-opioid receptor (μOR) M153A, with HA signal sequence at the N terminus and LgBiT at the C terminus (modified pfastbac1) (human) (UniProt P35372). The description is as above.
The target of assay [4] is human μ-opioid receptor (μOR) M153I, with HA signal sequence at the N terminus and LgBiT at the C terminus (modified pfastbac1) (human) (UniProt P35372). The assay is described as above.
The target in assay [5] is human μ-opioid receptor (μOR) M153F, with HA signal sequence at the N terminus and LgBiT at the C terminus (modified pfastbac1) (human) (UniProt P35372). Described as above.
Assay [6] deals with human μ-opioid receptor (μOR) M153L, with HA signal sequence at the N terminus and LgBiT at the C terminus (modified pfastbac1) (human) (UniProt P35372). As to the kind of experiment: split reporter (BiFC, NanoBiT); NanoBiT on Sf9 membranes co-expressing μOR-LgBiT, Gαi1, Gβ1-SmBiT and Gγ2, in PBS pH 7.4; dose-response of DAMGO, 15 min at room temperature, luminescence; normalized to DAMGO.

Assay [7] addresses human μ-opioid receptor (μOR) M153I, with HA signal sequence at the N terminus and LgBiT at the C terminus (modified pfastbac1) (human) (UniProt P35372). The assay is described as above.
Assay [8] addresses human μ-opioid receptor (μOR) M153F, with HA signal sequence at the N terminus and LgBiT at the C terminus (modified pfastbac1) (human) (UniProt P35372). The assay is described as above.

Bounds are passed on as bounds.

Gi protein complex (Gαi1, Gβ1 with SmBiT at the C terminus, Gγ2), sequence (P63096 whole entry): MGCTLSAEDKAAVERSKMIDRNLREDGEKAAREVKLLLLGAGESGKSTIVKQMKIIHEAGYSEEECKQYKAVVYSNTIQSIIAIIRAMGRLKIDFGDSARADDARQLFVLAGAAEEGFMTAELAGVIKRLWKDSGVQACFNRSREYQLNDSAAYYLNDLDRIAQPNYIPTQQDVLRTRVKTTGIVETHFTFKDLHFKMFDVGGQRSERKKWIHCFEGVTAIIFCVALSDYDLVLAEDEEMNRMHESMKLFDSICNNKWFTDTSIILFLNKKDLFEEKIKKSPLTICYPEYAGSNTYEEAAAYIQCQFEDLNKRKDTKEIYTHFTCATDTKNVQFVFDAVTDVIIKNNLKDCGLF
Gi protein complex (Gαi1, Gβ1 with SmBiT at the C terminus, Gγ2), sequence (P62873 whole entry): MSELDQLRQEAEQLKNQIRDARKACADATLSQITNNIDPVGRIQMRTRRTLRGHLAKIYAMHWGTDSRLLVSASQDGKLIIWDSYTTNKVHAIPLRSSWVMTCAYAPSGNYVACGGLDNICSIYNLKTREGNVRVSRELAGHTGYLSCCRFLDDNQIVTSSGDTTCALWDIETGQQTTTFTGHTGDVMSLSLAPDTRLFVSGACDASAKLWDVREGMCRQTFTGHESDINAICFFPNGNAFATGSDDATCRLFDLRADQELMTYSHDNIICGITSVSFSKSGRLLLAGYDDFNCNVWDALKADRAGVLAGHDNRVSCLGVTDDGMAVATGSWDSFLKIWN
Gi protein complex (Gαi1, Gβ1 with SmBiT at the C terminus, Gγ2), sequence (P59768 whole entry): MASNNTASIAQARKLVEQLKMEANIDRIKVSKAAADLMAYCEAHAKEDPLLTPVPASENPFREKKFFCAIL

With “Gi protein complex (Gαi1, Gβ1 with SmBiT at the C terminus, Gγ2) (from UniProt P63096 1-354; P62873 1-340; P59768 1-71)”, the maximal Gi coupling (normalized to DAMGO) in assay [1] was less than 55%; in assay [2], less than 55%; in assay [3] it was less than 55%; in assay [4], less than 55%; in assay [5], less than 55%; in assay [6], 100%. The maximal Gi coupling (normalized to DAMGO) in assay [7] and in assay [8] was 100% throughout.
